Laboratory results: publication PMC11052181, “The Post-Transcriptional Regulatory Protein CsrA Amplifies Its Targetome through Direct Interactions with Stress-Response Regulatory Hubs: The EvgA and AcnA Cases”

Columns and labels:
Settings in all cases: protein: recombinant; chain copies: 2; label: 5'-32P
CsrA [1] = biological target: T1, CsrA (Escherichia coli, UniProt P69913 1-61); assay: EMSA; excess yeast total RNA; 0.5 nM 32P-RNA, 0-300 nM CsrA, 30 min, excess yeast total RNA; 10% native PAGE, 0.5x TBE, 4 C, 170 V; binding buffer, pH and temperature not stated (as in refs)
T1 sequence (P69913 whole entry): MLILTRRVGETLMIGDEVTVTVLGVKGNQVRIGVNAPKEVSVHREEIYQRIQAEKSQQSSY

CsrA [2] = biological target: T1, CsrA; assay: as above; remark: listed apart in the source
CsrA [3] = biological target: T1, CsrA; assay: EMSA; excess yeast total RNA; reduced curve amplitude; 0.5 nM 32P-RNA, 0-300 nM CsrA, 30 min, excess yeast total RNA; 10% native PAGE, 0.5x TBE, 4 C, 170 V; binding buffer, pH and temperature not stated (as in refs)
CsrA [4] = biological target: T1, CsrA; assay: EMSA; excess yeast total RNA; 0.5 nM 32P-RNA, 0-300 nM CsrA, 30 min, excess yeast total RNA; 10% native PAGE, 0.5x TBE, 4 C, 170 V; binding buffer, pH and temperature not stated (as in refs); remark: listed apart in the source

B1: evgA leader WT (T7-evgA-WT) (structured_RNA)
RNA: GGGAUAAUUACUUGUCGAAUUAUCUUAAAGGAAGCUCAGAUUUUCUUAUUUUUAUUGAGAAAAUGAGAUGACGCCUUAUGUCUGUAUUACUACAGGGAGAAGGGAGAUGCUUCAUUGCAAAGGGAAUAAUCUAUGAACGCAAUAAUUAUUGAUGACCAUCCUCUUGCUAUCGCAGCAAUUCGUAAUUUAUUGAUCAAAAACGAUAUUGAAAUCUUAGCAGAGUUGACUGAAG
In the case of B1, the Kd (CsrA [1]) is reported as roughly 83.7 nM.

B2: evgA GGA2 mutant (GGA to AGA) (structured_RNA)
RNA: GGGAUAAUUACUUGUCGAAUUAUCUUAAAGGAAGCUCAGAUUUUCUUAUUUUUAUUGAGAAAAUGAGAUGACGCCUUAUGUCUGUAUUACUACAGAGAGAAGGGAGAUGCUUCAUUGCAAAGGGAAUAAUCUAUGAACGCAAUAAUUAUUGAUGACCAUCCUCUUGCUAUCGCAGCAAUUCGUAAUUUAUUGAUCAAAAACGAUAUUGAAAUCUUAGCAGAGUUGACUGAAG
B2 gave a binding signal (CsrA [2]) of roughly 1.6 fold increase in Kd vs WT.

B3: evgA no GGAs mutant (structured_RNA)
RNA: GGGAUAAUUACUUGUCGAAUUAUCGUAAACGAAGCUCAGAUUUUCUUAUUUUUAUUGAGAAAAUGAGAUGACGGCUUAUGUCUGUAUUACUACAGAGAGAAGCGAGAUGCUUCAUUGCAAAAGGGGUAAUCUAUGAACGCAAUAAUUAUUGAUGACCAUCCUCUUGCUAUCGCAGCAAUUCGUAAUUUAUUGAUCAAAAACGAUAUUGAAAUCUUAGCAGAGUUGACUGAAG
With B3 the binding signal (CsrA [3]) was roughly 2.8 fold increase in Kd vs WT.

B4: evgA GGA4 mutant (AGGGAA to AAGGGG) (structured_RNA)
RNA: GGGAUAAUUACUUGUCGAAUUAUCUUAAAGGAAGCUCAGAUUUUCUUAUUUUUAUUGAGAAAAUGAGAUGACGCCUUAUGUCUGUAUUACUACAGGGAGAAGGGAGAUGCUUCAUUGCAAAAGGGGUAAUCUAUGAACGCAAUAAUUAUUGAUGACCAUCCUCUUGCUAUCGCAGCAAUUCGUAAUUUAUUGAUCAAAAACGAUAUUGAAAUCUUAGCAGAGUUGACUGAAG
With B4 the binding signal (CsrA [2]) was roughly 2 fold increase in Kd vs WT.

B5: evgA all pred. sites mutant (PBS-I + PBS-II) (structured_RNA)
RNA: GGGAUAAUUACUUGUCGAAUUUUCGUAAACGAAGCUCAGAUUUUCUUAUUUUUAUUGAGAAAAUAAGAUCACGCCUUAUGUCUGUAUUACUACAGGGAGAAGGGAGAUGCUUCAUUGCAAAGGGAAUAAUCUAUGAACCCUAUAAUUAUUGAUGACCAUCCUCUUGCUAUCGCAGCAAUUCGUAAUUUAUUGAUCAAAAACGAUAUUGAAAUCUUAGCAGAGUUGACUGAAG
For B5, the binding signal (CsrA [2]) was roughly 1.2 fold increase in Kd vs WT.

B6: acnA leader WT (T7-acnA-WT) (structured_RNA)
RNA: GGGAUAAUUCACCCUGAAGAGAAUCAGGGCUUCGCAACCCUGUCAUUAAGGAGGAGCUAUGUCGUCAACCCUACGAGAAGCCAGUAAGGACACGUUGCAGGCCAAAGAUAAAACUUACCACUACUACAGCCUGCCGCUUGCUGCUAAAUCACUGGGCG
With B6 the Kd (CsrA [1]) was roughly 90.9 nM.

B7: acnA PBS-I & PBS-III double mutant (dm-1&3) (structured_RNA)
RNA: GGGAUAAUUCACCCUGAAGAGAAUCAGGGCUUCGCAACCCUGUCAUUAACCACCAGCUAUGUGGUCAACCCUACGAGAAGCCAGUAAGGACACGUUGCAGGCCUAACUUAAAACUUACCACUACUACAGCCUGCCGCUUGCUGCUAAAUCACUGGGCG
B7 gave a binding signal (CsrA [4]) of roughly 2 fold increase in Kd vs WT.

B8: acnA PBS-I mutant (mut1, GGAGGA to CCACCA) (structured_RNA)
RNA: GGGAUAAUUCACCCUGAAGAGAAUCAGGGCUUCGCAACCCUGUCAUUAACCACCAGCUAUGUGGUCAACCCUACGAGAAGCCAGUAAGGACACGUUGCAGGCCAAAGAUAAAACUUACCACUACUACAGCCUGCCGCUUGCUGCUAAAUCACUGGGCG
Work on B8 yielded a binding signal (CsrA [4]) of roughly 1.7 fold increase in Kd vs WT.

B9: acnA PBS-III mutant (mut3, AAAGAU to UAACUU) (structured_RNA)
RNA: GGGAUAAUUCACCCUGAAGAGAAUCAGGGCUUCGCAACCCUGUCAUUAAGGAGGAGCUAUGUCGUCAACCCUACGAGAAGCCAGUAAGGACACGUUGCAGGCCUAACUUAAAACUUACCACUACUACAGCCUGCCGCUUGCUGCUAAAUCACUGGGCG
B9 was tested, and the binding signal (CsrA [4]) was roughly 1.6 fold increase in Kd vs WT.
